Legend:
[1] = biological target: GST-OST1/SnRK2.6 (UniProt Q940H6)
[2] = biological target: T1, dephosphorylated recombinant His-OST1/SnRK2.6 (UniProt Q940H6)
T1 sequence: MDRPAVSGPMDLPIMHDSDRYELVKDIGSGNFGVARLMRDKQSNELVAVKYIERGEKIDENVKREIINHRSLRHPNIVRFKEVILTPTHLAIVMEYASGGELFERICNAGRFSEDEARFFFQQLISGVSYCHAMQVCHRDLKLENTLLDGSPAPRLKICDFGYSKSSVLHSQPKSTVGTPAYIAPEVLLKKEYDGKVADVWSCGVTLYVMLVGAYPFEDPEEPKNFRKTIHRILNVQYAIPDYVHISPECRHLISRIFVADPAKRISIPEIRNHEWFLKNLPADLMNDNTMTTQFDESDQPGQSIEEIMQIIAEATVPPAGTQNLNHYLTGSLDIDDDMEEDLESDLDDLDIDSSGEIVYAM

[3] = biological target: GST-OST1/SnRK2.6 (D140A) (UniProt Q940H6)
[4] = biological target: T2, GST-SnRK2.3 (UniProt Q39193)
T2 sequence: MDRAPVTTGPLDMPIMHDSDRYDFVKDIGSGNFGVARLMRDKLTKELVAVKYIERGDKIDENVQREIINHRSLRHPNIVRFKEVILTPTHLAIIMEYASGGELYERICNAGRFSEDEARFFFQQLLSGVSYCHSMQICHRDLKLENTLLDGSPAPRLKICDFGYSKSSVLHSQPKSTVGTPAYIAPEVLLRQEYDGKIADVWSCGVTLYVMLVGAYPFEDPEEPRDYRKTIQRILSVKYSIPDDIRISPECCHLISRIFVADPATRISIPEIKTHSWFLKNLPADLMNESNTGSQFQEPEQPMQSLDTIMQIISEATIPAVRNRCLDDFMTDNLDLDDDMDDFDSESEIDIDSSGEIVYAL

[5] = biological target: T3, GST-SnRK2.2 (UniProt Q39192)
T3 sequence: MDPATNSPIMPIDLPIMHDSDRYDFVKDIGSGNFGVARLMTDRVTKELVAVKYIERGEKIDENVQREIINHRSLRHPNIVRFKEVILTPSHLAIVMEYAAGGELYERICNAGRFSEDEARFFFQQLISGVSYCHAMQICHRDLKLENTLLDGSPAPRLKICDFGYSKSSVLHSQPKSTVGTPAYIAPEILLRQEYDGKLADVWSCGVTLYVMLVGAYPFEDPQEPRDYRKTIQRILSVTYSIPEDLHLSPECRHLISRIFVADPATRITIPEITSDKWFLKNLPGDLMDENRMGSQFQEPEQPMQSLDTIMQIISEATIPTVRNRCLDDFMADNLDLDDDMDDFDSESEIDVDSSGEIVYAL

[6] = biological target: T4, GST-SnRK2.4 (UniProt P43291)
T4 sequence: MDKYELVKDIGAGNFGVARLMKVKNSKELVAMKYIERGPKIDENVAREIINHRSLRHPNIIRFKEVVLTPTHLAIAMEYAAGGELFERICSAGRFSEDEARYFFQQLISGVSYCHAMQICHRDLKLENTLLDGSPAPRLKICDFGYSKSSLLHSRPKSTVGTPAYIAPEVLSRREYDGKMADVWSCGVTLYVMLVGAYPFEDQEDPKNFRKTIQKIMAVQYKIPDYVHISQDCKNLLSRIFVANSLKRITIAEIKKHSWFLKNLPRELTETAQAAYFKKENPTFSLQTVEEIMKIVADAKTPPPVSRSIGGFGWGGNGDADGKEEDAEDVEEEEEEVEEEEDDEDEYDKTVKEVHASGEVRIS

Chain of CPK23 (chain, as listed by the source): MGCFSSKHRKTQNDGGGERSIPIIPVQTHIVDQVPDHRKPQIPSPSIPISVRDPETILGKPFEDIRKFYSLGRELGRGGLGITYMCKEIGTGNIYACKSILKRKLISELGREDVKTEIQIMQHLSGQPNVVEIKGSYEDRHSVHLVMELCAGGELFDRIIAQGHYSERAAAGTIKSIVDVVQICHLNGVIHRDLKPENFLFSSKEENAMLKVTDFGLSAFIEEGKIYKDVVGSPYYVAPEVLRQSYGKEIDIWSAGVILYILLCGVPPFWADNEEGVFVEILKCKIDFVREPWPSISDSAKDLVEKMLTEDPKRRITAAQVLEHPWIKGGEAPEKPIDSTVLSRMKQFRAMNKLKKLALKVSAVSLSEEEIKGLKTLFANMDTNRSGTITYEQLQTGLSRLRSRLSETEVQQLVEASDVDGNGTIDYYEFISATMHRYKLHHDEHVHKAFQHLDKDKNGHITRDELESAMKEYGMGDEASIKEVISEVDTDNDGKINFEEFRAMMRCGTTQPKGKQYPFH

Question: CPK23 was tested. Which “in vitro phosphorylation assay with 32P-ATP after dephosphorylation of OST1” value [1] did it give?
Answer: did not phosphorylate OST1/SnRK2.6 after dephosphorylation

Question: How did the “OST1/SnRK2.6 activity, in-gel kinase assay in vitro” value (“OST1/SnRK2.6 activity” for short) [1] turn out when full-length His-M3Kδ1 was run?
Answer: Full-length M3Kδ1 activates OST1/SnRK2.6 in vitro

Question: Which “OST1/SnRK2.6 activity” value [2] does the source give for M3Kδ6 kinase domain mutant (K775W) here?
Answer: OST1/SnRK2 kinase activation was not induced by an inactive mutant M3K kinase protein, M3Kδ6 (K775W)

Question: With GST-M3Kδ7 kinase domain as the substance, how does the “in vitro phosphorylation assay with 32P-ATP” value [3] read?
Answer: the M3Kδ1, 66 and 67 kinase domains directly phosphorylated the kinase inactive OST1/SnRK2.6 (D140A) mutant isoform

Question: And the “SnRK2 kinase activity, in-gel kinase assay in vitro” value [4]?
Answer: SnRK2.3 was also activated by M3Kδ6 and M3Kδ7

Question: What about the “OST1/SnRK2.6 activity” value [2] of the same substance?
Answer: three M3Ks from the subgroup B3, named M3Kδ1, 66 and 67, were found to strongly activate OST1/SnRK2.6

Question: With GST-M3Kδ6 kinase domain as the substance, how does the “in vitro phosphorylation assay with 32P-ATP” value [3] read?
Answer: the M3Kδ1, 66 and 67 kinase domains directly phosphorylated the kinase inactive OST1/SnRK2.6 (D140A) mutant isoform

Question: What about the “SnRK2 kinase activity, in-gel kinase assay in vitro” value [4] of the same substance?
Answer: SnRK2.3 was also activated by M3Kδ6 and M3Kδ7

Question: What about the “OST1/SnRK2.6 activity” value [2] of the same substance?
Answer: three M3Ks from the subgroup B3, named M3Kδ1, 66 and 67, were found to strongly activate OST1/SnRK2.6

Question: What does the source list for GST-M3Kδ1 kinase domain?
Answer: in vitro phosphorylation assay with 32P-ATP [3]: the M3Kδ1, 66 and 67 kinase domains directly phosphorylated the kinase inactive OST1/SnRK2.6 (D140A) mutant isoform; phosphorylation sites by LC-MS/MS after in vitro phosphorylation [3]: M3Kδ1 phosphorylated the OST1/SnRK2.6 residues Ser171, Ser175 and Thr176 in the OST1 activation loop; OST1/SnRK2.6 activity, in-gel kinase assay in vitro [1]: the truncated kinase domain (M3Kδ1_KD) has a higher activity than the full length M3Kδ1 protein (M3Kδ1_Full); SnRK2 kinase activity, in-gel kinase assay in vitro [5]: M3Kδ1 strongly activated SnRK2.2 and 2.3; SnRK2 kinase activity, in-gel kinase assay in vitro [4]: M3Kδ1 strongly activated SnRK2.2 and 2.3; SnRK2 kinase activity, in-gel kinase assay in vitro [6]: M3Kδ1 also activated SnRK2.4 kinase in vitro; OST1/SnRK2.6 activity, in-gel kinase assay in vitro [2]: three M3Ks from the subgroup B3, named M3Kδ1, 66 and 67, were found to strongly activate OST1/SnRK2.6

Question: Which “in vitro phosphorylation assay with 32P-ATP after dephosphorylation of OST1” value [1] does the source give for CPK6 here?
Answer: did not phosphorylate OST1/SnRK2.6 after dephosphorylation

Reference: patent publication US20220154204
